Assay results published in the RNAGym collection of RNA variant scans (doi:10.1021/acssynbio.7b00057).

B1: Pistol ribozyme (parent)
chain: GGGUCGUUGUUCCAUAAUCGCGUGGAUAUGGCACGCAAGUUUCUACCGGGCACCGUAAAUGUCCGACUGGAGCCGUUCGGGCGGCUAUAAACAGACCUCAGGCCCGAAGCGUGGCGGCACCUGCCGCCGGUGGUAAAAAAGAUCGGAAGAGCACACGUCU

Variants of: B1
Assay: aptazyme ON/OFF ratio, guanine; higher = stronger switching; co-transcriptional cleavage with and without guanine

Variant | aptazyme ON/OFF ratio
U7A U8C G9C U10G U11A C12U C13G | 1.01
U7G U8A G9C U10C U11G C13U | 1.03
U8C U10C U11G C12G C13A | 1.25
U8G G9A U10A U11G C12G C13A | 1.34
U7C U8A G9C U10C U11A C13A | 1.09
U7A U8G G9C U10A U11A C12G | 1.36
U7A U8G G9A U11A C12U | 1.38
U7C U8G G9A U10C U11C C12A C13G | 1.04
U7G U8G U10A U11G C12U C13U | 1.22
U7C U8A G9U U11G C12U | 1.4
U7A U8A U10C U11A | 1.2
U7A U8G C12A C13U | 1.31
U7A U8A U10A U11C C12G C13A | 1.06
U7C U8G G9C U10C C12U C13A | 1.05
U8C G9U U10C U11G C13A | 1.23
G9C U10A C12A C13A | 1.21
U7C U8G G9A U10C C12G C13U | 1.31
U7G U8G G9U U10A U11G C13A | 1.07
U7A U8C G9C U10C U11C C12G C13U | 1.07
U7G U8G G9A U10A U11G C12U C13U | 1.35
U7G U8G G9C U10G U11C C13G | 1.08
G9U U10C U11G C12A C13U | 1.08
U7A U8G U10C U11G C12A C13U | 1.19
U7G U8G G9U U11G C13U | 1.42

Variant | aptazyme ON/OFF ratio
U7G U10G C12A C13G | 1.11
U7C G9C U11C C12A | 1.03
U7G U8C G9C U10C U11C C13U | 0.999
U8A G9C U10G C13U | 1.31
U7C G9A U10G | 1.42
U7G G9U U11G C12G C13A | 1.19
U7A U8A G9A U11A C12G C13G | 1.28
U7A U8A G9C U10C U11G C12A C13A | 0.981
U7G U8G G9A U10A U11A C12U C13U | 1.24
U7A U8C U11G C12U C13U | 1.1
U7G U8C U10A U11G C12G C13U | 1.25
U7G U8A U10A C12G C13G | 1.22
U8G G9C U11G | 1.14
U7C U8A G9U U10C U11C C12A | 1.06
U7A G9U U11G C13U | 1.31
U7G U8A G9A U11C C12A C13G | 1.12
U8C G9U U10A C12A | 1.8
U7A U8A G9U U10C U11C C13G | 1.04
U8A U10G U11A C13A | 1.07
U7C U8A G9A U10C U11G C12G C13U | 1.11
U7G U8G G9C U10G U11G | 1.26
U7G U8G G9U U10G U11A C12U C13G | 1.19
U7G U8G U11G C12U C13G | 1.26
U8G G9A U10A U11G C12A C13G | 1.09

Variant | aptazyme ON/OFF ratio
U7G U8A G9U U10G C12U C13A | 1.05
U7A U8C G9C U10A U11C C13U | 1.12
U7G U8C G9A U10C U11A | 3.52
U7A U8G G9A U10C U11C C12U C13A | 1.06
U7A G9A U10A C12U C13A | 1.1
U7C U10G C12U C13G | 1.11
U7G U8A G9A U10G C12G | 1.09
U8C G9C U11G C12U C13G | 1.11
U7G G9A U10G U11G C12G C13G | 1.16
G9U U10A C12U C13A | 0.769
U7A U8C G9U U10C C13G | 1.06
U7A U8G G9U U10G C12A C13A | 1.27
U7A U8C G9A U10C U11A C13U | 1.28
U7A U8A G9U U10A U11A C12U C13G | 1.22
U7A U8A U11G C12U | 1.27
U7G U8C U10G U11G C12A C13U | 1.29
U7C U8G G9C U10A C12A C13G | 1.1
U7G G9C U10G U11C C13A | 1.24
U7A U8A G9A U10A U11G C12U C13A | 1.3
U7C U8G U10A U11A C12U C13A | 1.16
U7G U8G G9A U10G U11A C13A | 1.11
U7G U8C G9U U10C U11A C12G C13A | 1.39
U8G G9C U11A C12G C13U | 1.07
U7C U8C G9U U10A U11C C12A C13G | 1.15

Variant | aptazyme ON/OFF ratio
U10C C12U C13A | 1.13
U7A G9C U11C C13G | 1.04
U7A U8A U11C C12U C13U | 1.59
U7G U8G G9C U10A U11A C12G C13A | 1.08
U7A G9A U10G U11A C12G | 1.12
U7G U8A G9C U10A U11C C13U | 1.04
U8C G9U U10C U11C C12G C13U | 1.07
U8A G9U U11G C12A C13U | 1.23
U7A U8G G9U U10A U11A C12U | 1.32
G9A U10A U11C C12A C13G | 1.23
U7G U8C U10C U11A C12A C13U | 1.21
U7C U8G G9U C12A | 1.64
U7G U8G G9C U10G U11C C12A C13G | 1.05
U7G U8G G9C U11C C12U C13G | 1.37
U7G U8G G9C U10G U11C C12U C13G | 1.33
U7A U8A G9U U10G U11A C12A | 1.29
U7G U8G G9C U10G U11A C12G C13A | 1.06
U7A U8A G9U U10G U11G C12A C13U | 1.17
G9C U10A C13A | 1.3
U7A U8A G9C U10G U11A C13A | 1.04
U7A G9U U10A U11C C12A | 1.26
U8A G9A U10A U11C C12A C13G | 1.16
U11C C12A C13A | 1.53
U8G G9A U10A U11G C12A C13A | 1.17

Variant | aptazyme ON/OFF ratio
U7C U8G U10C U11A C12U C13A | 1.15
U7G U8G U10G U11C C12A | 1.17
U8C G9C U10A C12A | 1.11
U8G U11A C12G C13U | 1.09
G9U U10G U11A C12A C13G | 1.7
U7G U10A U11G C12U | 1.32
U7G U8A G9C U10G | 1.1
U7C G9U U10A C13A | 1.18
U7A U8A G9A U10A U11G C12A C13G | 1.24
U7A U8G G9C U10A C12U C13G | 1.21
U8C C12G C13U | 1.31
U7C U11G C13U | 1.03
U7G U10G C13U | 1.17
U7C U8G U10G U11G C13A | 1.21
U7A U8C G9U U10A C12G C13U | 1.32
U10C U11G C12G C13A | 1.24
U7G U8C G9C U10C U11C C13A | 1.04
U8A G9C C12A C13G | 1.17
U7C U8C G9U U10G U11G C12G | 1.1
U8G G9U U10C U11C C12U | 1.03
U7G G9U U10C U11C C12G C13U | 1.31
G9U U10C U11G C12U C13U | 1.41
U7C U8C G9A U10G U11A C12A C13U | 1.16
U7C U8C G9A U11A C13U | 1.32

Variant | aptazyme ON/OFF ratio
U7G G9A U10C C12A C13U | 1.15
U7C U8A G9A U10A C13U | 1.26
U7C U8G G9C C12U C13G | 1.07
U8A G9U U10C U11A C12U C13A | 1.26
U7C U8G G9C U10A U11C C13A | 1.07
U8G G9C U10A U11A C12G C13A | 1.11
U8A G9A U10C U11C C13U | 1.05
U8C U10C C12U | 2.98
U7G U8C G9C C13A | 1.11
U7G U8C G9U U10C U11A C12G C13U | 1.2
U8G G9C U10A U11G C12G C13U | 1.22
U7C U10G U11G C12G C13G | 0.991
U7C U8C G9U U10C C12U C13U | 1.28
U7A U8G U10A U11A | 2.54
U7C U8A U11A C12A C13G | 1.08
U7A U8A G9U U10G U11A C12G | 1.32
U7A U8C G9U U10C U11C C12G C13G | 1.22
U7A U8C G9C U10A U11G C12G | 1.12
U7G U8C G9C U10G U11C C12A | 1.36
U7A U8C G9C U10G U11G C12U | 1.05
U7G U8A U10G U11A C12A C13U | 1.12
U7C U8A G9C U10G U11G C12U | 1.12
U7C G9C U10G U11G C12U C13U | 1.12
U7C U8A U10G U11C C13A | 1.08

Variant | aptazyme ON/OFF ratio
U7C U8A G9U U10C U11G C12G C13G | 1.08
U8G U10G C12G C13G | 1.14
U7C U8A G9C U10G U11G C12U C13G | 1.1
U7A U8G U10A U11A C12A | 1.47
U7C G9A U10C U11A C12U C13U | 1.39
U7A U8G U10G U11C C12A C13A | 1.39
U8G G9C U10C C12U C13A | 1.06
U7C U8G G9C U10A U11A C13U | 1.2
U8C G9A U10A U11C C12A | 1.25
U7A U8C G9U U10G U11A C12G C13U | 1.21
G9C U11C C12U C13G | 1.01
U7G U8C U10C U11A C12U | 1.39
U7C U8G U10A U11G C12A | 1.11
U8G U10C | 3.87
U7C G9A U10G U11G C12U | 1.28
U7C U8G U10G U11A C12G C13U | 1.14
U8A G9C U10A U11A C12A C13U | 1.37
U7A U8C U10C U11G | 1.26
U7C U8A G9C U10A U11G C13G | 1.02
U7A U10G C12G C13A | 1.08
U11A C12A | 2.18
U7G U8A G9A U10A U11C C13G | 1.08
U8G U10G C13A | 1.15
